Experimental data from patent US20240174746A1.
Each block holds one binder with its values, some of them ahead of it.

Columns and labels:
[1] = target: cynomolgus (cyno) TMEM106B (cynomolgus); assay: flow cytometry, HEK293 cells transiently transfected with cyno TMEM106B
[2] = target: human TMEM106B (human) (UniProt Q9NUM4); assay: flow cytometry, HEK293 cells transiently transfected with human TMEM106B
[3] = target: mouse TMEM106B (mouse) (UniProt Q80X71); assay: flow cytometry, HEK293 cells transiently transfected with murine TMEM106B

B3: TM-90 (antibody, V domains shown)
VH: QVHLQQSGPELVKPGASVKLSCKASGYPFTSYDINWVKQRPGQGLEWIGWIYPRDGNAKYNEKFKGKATLTVDTSSSTAYMELHSLTSENSAVYFCARVSDYHGGYGMDYWGQGTSVTVSS
VL: DVLMTQTPLSLPVSLGDQASISCRSSQSFVHGNGNTYLEWYLQKPGQSPKLLIYKVSHRFSGVPDRFSGSGSGTDFTLKITRVEAEDLGVYYCFQNSHVPHTFGGGTKLEIK
fold-change in binding over parental HEK293 cells [3]: 1.97 fold

B4: TM-79 (antibody, V domains shown)
VH: EVQLQQSGPELVKPGASVKMSCKASGYTFTNYVMHWLKQKPGQGLEWIAHITPHNDGTKYNEKFKGKATLTSDRSSSTAYMELNSLTSEDSAIYYCARSGQFGRGDYFHYWGQGTTVTVSS
VL: DIVLTQSPASLAVSLGQRATISCRASKSVSTSGSIYIHWYQQKPGQPPKLLIYLTSNLESGVPARFSGSGSGTDFTLNIHPVEEEDAATYYCQHSGELPWTFGGGARLEIK
fold-change in binding over parental HEK293 cells [3]: 1.86 fold

B5: TM-77 (antibody, V domains shown)
VH: QIQLQQSGAELVRPGASVKLSCKASGYTFTDYEMHWVKQTPVHGLEWIGVIDPETGGTAYNQMFKGKATLTADKSSSTAYMDLRSLTSEDSAVYYCVKYGIEGYWGQGTTLTVSS
VL: DVVMTQIPLTLSVTLGQPASISCKSSQSLFHSNGKTYLNWLLQRPGQSPKLLIYMVSKLESGVPDRFSGSGSGTDFTLKISRVEAEDLGVYYCLQVTHFPLTFGAGTKLELK
fold-change in binding over parental HEK293 cells [3]: 1.86 fold

The next lines start with the values.

fold-change in binding over parental HEK293 cells [1]: 1.78 fold
B1: TM-72 (antibody, V domains shown)
VH: QVQLQQPGAELVKPGTSVKLSCKASGSTFTNYWMHWVMQRPGQGLEWIGNIDPSDSDTHYNQKFKDRAKLTVDKSSSTAYMQLSGLTSEDSAVYYCARSRGGYYDYGEAMDYWGQGTSVTVSS
VL: DIVMTQAAPSVPVTPGESVSISCRSSKSLLHTNGNTYLFWFIQRPGQSPHLLIYRKSNLASGVPDRFSGSGSGTAFTLRISRVEAEDVGVYYCMQHLEYPFTFGSGTKLEIK

fold-change in binding over parental HEK293 cells [2]: 1.99 fold
B2: TM-82 (antibody, V domains shown)
VH: QVQLQQSGAELVRPGTSVRVSCKASGYAFTNYLIEWIKQRPGQGLEWIGVINPGSGITDYSEKFKGKARLTADKSSSTAYMQLSSLTSDDSAVYFCTRSPFITTVVADYWGQGTTVTVSS
VL: DVVVTQTPLSLPVSFGDQVSISCRSSQSLANTYGNTYLSWYLHTPGQSPQLLIFGISNRFSGVPDRFSGSGSGTDFTLKISTIKPEDLGVYYCLQGTHPPRTFGGGTKLEMK
